From IntAct's records for PubMed 36233334

B1: Cilia- and flagella-associated protein 418 (Homo sapiens), Q96NL8 (parent)
chain: MAEDLDELLDEVESKFCTPDLLRRGMVEQPKGCGGGTHSSDRNQAKAKETLRSTETFKKEDDLDSLINEILEEPNLDKKPSKLKSKSSGNTSVRASIEGLGKSCSPVYLGGSSIPCGIGTNISWRACDHLRCIACDFLVVSYDDYMWDKSCDYLFFRNNMPEFHKLKAKLIKKKGTRAYACQCSWRTIEEVTDLQTDHQLRWVCGKH
partner: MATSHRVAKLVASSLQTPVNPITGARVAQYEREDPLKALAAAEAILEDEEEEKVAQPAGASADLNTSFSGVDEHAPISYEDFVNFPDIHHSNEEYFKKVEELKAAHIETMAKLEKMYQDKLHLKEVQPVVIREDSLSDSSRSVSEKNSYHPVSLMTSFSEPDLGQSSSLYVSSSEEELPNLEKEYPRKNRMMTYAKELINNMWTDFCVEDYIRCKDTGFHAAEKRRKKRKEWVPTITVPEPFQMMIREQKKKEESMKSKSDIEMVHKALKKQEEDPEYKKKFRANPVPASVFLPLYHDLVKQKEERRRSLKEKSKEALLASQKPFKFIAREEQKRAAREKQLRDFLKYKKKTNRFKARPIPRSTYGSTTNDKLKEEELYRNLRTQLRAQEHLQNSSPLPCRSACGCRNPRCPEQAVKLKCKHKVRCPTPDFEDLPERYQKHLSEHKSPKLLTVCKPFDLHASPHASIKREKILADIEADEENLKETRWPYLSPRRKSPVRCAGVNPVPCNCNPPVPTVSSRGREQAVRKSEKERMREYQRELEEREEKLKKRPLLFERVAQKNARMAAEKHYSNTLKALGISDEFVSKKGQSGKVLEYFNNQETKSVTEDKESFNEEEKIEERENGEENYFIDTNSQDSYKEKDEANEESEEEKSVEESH

Variants of: B1
Conditions: with FAM161A

| Variant | effect of a mutation on the interaction |
| --- | --- |
| R177W | with no effect |
| Q182R | with no effect |
